Assay [1] deals with biotinylated peptide M64-P1-P2-ΔK-(PEG9)(PEG9)-K(Biotin) with P1 = V. Nature of the assay: BLI, biotinylated peptide on streptavidin tips, binder in solution. A general note: In BLI a coated tip is dipped into the sample, and binding shifts an interference pattern.
Assay [2] has as its target biotinylated peptide M64-P1-P2-ΔK-(PEG9)(PEG9)-K(Biotin) with P1 = T. Described as above.

The term Kd denotes the concentration at which binding is half-saturated. Usually koff stands for the rate constant with which the complex falls apart. The low end stands for a long-lived complex, the high end for a short-lived complex. For orientation: kon means the second-order rate constant of association. Higher therefore signals fast association.

B1: S279_0004 (designed binder, not shown: small tags and cut ends; large carriers)
chain: EWGYASHNGPDHWHELFPNAKGENQSPIELHTKDIRHDPSLQPWSVSYDGGSAKTILNNGKTLGVVFDDTYDRSMLRGGPLPGPYRLREFHLHWGSSDDHGSEHTVDGVKYAAELHLLHWNPKYNTFKEALKQRDGLAVIGIFLKIGHENGEFQIFLDALDKIKTKGKEAPFTKFDPSSLFPASRDYWTYQGSMTIPPLMEAVVWLLLKEPMTVSSDQMAKLRSLLSSAENEPPVPLVSNWRPPQPINNRVVRASFK
The molecule B1 had a dissociation constant (Kd) in assay [1] of less than 350 nM.

B2: Synthetic binder, S279_0004 (designed binder)
chain: EWGYASHNGPDHWHELFPNAKGENQSPIELHTKDIRHDPSLQPWSVSYDGGSAKTILNNGKTLGVVFDDTYDRSMLRGGPLPGPYRLREFHLHWGSSDDHGSEHTVDGVKYAAELHLLHWNPKYNTFKEALKQRDGLAVIGIFLKIGHENGEFQIFLDALDKIKTKGKEAPFTKFDPSSLFPASRDYWTYQGSMTIPPLMEAVVWLLLKEPMTVSSDQMAKLRSLLSSAENEPPVPLVSNWRPPQPINNRVVRASFK
Take B2: in assay [1], the equilibrium dissociation constant (Kd) was 20 nM, the koff turned out to be 0.000473 s⁻¹ and the kon is 23700 M⁻¹ s⁻¹. In assay [2], this molecule had a Kd of 488 nM, a dissociation rate constant (koff) of 0.0111 s⁻¹ and an association rate constant (kon) of 23300 M⁻¹ s⁻¹.
